Reference: paper PMC8437434

Assays:
[1] = target: tau^4R (residues 244-372, C322A) (UniProt P10636)
[2] = target: tau^4R (residues 244-372, C322A) (UniProt P10636); remark: listed apart in the source

tau^4R (residues 244-372, C322A), sequence (P10636 561-689 C639A): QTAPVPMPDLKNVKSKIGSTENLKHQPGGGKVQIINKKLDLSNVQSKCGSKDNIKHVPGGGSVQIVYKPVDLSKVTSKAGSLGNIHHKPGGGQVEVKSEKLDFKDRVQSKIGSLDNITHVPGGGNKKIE

Row | reduction of tau fibril mass (kinetic measurements) at equimolar HSPB1:tau [1] | reduction of tau fibril mass (unnormalised ThT kinetics) at 1:1 HSPB1:tau [2] | reduction of tau fibril mass (unnormalised ThT kinetics), DNAJB1:tau 0.5:1 (67%) to 1:1 [2] | Substance
1 | 45% | 47% |  | HSPB1 3D GXG variant (S15D, S78D, S82D, I181G, V183G) (from UniProt P04792 1-205) (natural protein)
2 |  |  | 94% | full-length DNAJB1 (from UniProt P25685 1-340) (natural protein)
